Data taken from publication PMC11410670, “Growth of complete ammonia oxidizers on guanidine” (Nature, 2024).

B1: N. inopinata guanidinase (Candidatus Nitrospira inopinata) (protein)
chain: MAKKRTYQGKVPLHDNYGPEAKYAVEAEALLPTTKFEEEIARGLELGLPGADSIKDRRIPTFSRGELPHFAGINTFIKAPYVEDVRKCGQYDVAILGAPFDGGTTYRAGTRFGPQGIRKISALYGTYSFELGVDLRESVSICDVGDIFTIPGNIEKTFDQVSKGVGHVFASGAFPVVLGGDHSLGFATVRGVAQHLNGKKLGILHFDRHVDTQDTDLDERMHTTPWFHATNIPNVPAKNLVQIGIGGWQAPRPGVKAGRERQTTIMTVTDCVEMGIENAAKQALEVAFDGVDAVWLSFDVDCLDAAFVPGTGWPEPGGFLPREVLKFLQIIADTKPLAGMEIVECAPPYDAAEITSLMATRVICDVLACQVRSGHLGNRKKR
notes: full-length, N-terminal His6-MBP tag (pCoofy4) cleaved with HRV-3C; E. coli; homohexamer 240 kDa; Ni/Mn; N-terminus from primer MAKKRTY; residues T105, H182, D207, H209, D211, H222, D299, D301, W313, E344

Experiments:
[1] = biological target: Nitrospira inopinata guanidinase (Nitrospira inopinata); assay: SEC-MALS; Superdex 200 Increase 10/300 GL, 20 °C, 20 mM HEPES, 150 mM NaCl, pH 7.4; 80 µl injected at 1 mg/ml; hexamer in solution
[2] = substrate: N=C(N)N; assay: urea production, thiosemicarbazide-diacetylmonoxime colorimetry, Michaelis-Menten fit; format: biochemical, Candidatus Nitrospira inopinata; settings: pH 7.5, 37 °C, 20 mM Tris-HCl, 50 mM NaCl, enzyme expressed with 1 mM NiSO4 and assayed with 1 mM Ni2+

Molecule	stoichiometry N [1]	Km [2] [mM]
Nitrospira inopinata guanidinase (enzyme)	6	
B1		13.6 ± 0.76
